Assay results as given in article PMC2756588.

How the values were obtained:
Assay in all cases: SPOT array
[1] = biological target: T1, Abp1, P15891; settings: median of control spots 935
T1 sequence (P15891 535-592, looked up): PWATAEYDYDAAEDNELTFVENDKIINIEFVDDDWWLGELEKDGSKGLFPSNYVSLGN

[2] = biological target: T2, Bbc1, P47068; settings: median of control spots 796
T2 sequence (P47068 1-78, looked up): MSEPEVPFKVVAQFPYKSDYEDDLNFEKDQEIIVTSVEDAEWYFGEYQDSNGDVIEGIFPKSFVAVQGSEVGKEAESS

[3] = biological target: Bem1-1, P29366; settings: median of control spots 4282
Chain of Bem1-1, P29366 (P29366 55-141): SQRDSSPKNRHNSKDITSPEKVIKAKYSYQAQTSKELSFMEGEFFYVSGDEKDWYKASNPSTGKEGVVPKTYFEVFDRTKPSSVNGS

[4] = biological target: Bem1-2, P29366; settings: median of control spots 4347
Chain of Bem1-2, P29366 (P29366 139-227): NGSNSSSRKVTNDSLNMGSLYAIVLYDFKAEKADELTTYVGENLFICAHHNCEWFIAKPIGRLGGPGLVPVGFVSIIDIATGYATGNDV

[5] = biological target: T3, Boi1, P38041; settings: median of control spots 1162
T3 sequence (P38041 1-86, looked up): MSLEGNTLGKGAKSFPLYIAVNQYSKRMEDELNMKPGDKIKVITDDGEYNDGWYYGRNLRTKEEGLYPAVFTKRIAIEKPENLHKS

[6] = biological target: T4, Boi2, P39969; settings: median of control spots 1161
T4 sequence (P39969 32-116, looked up): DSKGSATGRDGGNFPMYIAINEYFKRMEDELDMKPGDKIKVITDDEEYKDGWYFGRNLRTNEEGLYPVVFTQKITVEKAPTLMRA

[7] = biological target: T5, Bud14, P27637; settings: median of control spots 956
T5 sequence (P27637 247-328, looked up): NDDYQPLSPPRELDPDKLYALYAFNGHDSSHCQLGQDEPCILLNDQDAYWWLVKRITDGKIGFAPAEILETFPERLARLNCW

[8] = biological target: T6, Bzz1-1, P38822; settings: median of control spots 4446
T6 sequence (P38822 478-572, looked up): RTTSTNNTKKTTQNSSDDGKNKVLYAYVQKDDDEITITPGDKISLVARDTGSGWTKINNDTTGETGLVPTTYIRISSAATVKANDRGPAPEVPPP

[9] = biological target: T7, Bzz1-2, P38822; settings: median of control spots 4538
T7 sequence (P38822 568-633, looked up): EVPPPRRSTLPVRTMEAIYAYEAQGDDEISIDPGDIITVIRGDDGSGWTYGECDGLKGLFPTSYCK

[10] = biological target: T8, Cdc25, P04821; settings: median of control spots 969
T8 sequence (P04821 50-136, looked up): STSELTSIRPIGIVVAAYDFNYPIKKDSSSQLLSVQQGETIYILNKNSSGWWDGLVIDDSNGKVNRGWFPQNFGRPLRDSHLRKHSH

[11] = biological target: T9, Cyk3, Q07533; settings: median of control spots 1451
T9 sequence (Q07533 1-83, looked up): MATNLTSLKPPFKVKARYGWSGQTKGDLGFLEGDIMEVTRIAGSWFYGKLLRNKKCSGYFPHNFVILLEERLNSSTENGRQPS

[12] = biological target: T10, Fus1, P11710; settings: median of control spots 1200
T10 sequence (P11710 432-512, looked up): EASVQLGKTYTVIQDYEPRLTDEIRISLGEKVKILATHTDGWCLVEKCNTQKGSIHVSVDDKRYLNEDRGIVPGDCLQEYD

[13] = biological target: GST; settings: median of control spots 978
[14] = biological target: T11, Hof1, Q05080; settings: median of control spots 4086
T11 sequence (Q05080 590-669, looked up): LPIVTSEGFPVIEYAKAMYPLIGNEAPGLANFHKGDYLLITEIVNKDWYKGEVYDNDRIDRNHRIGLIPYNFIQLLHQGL

[15] = biological target: T12, Hse1, P38753; settings: median of control spots 1727
T12 sequence (P38753 208-285, looked up): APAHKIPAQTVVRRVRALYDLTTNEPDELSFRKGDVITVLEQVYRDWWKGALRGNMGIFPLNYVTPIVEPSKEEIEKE

[16] = biological target: T13, Lsb1, P53281; settings: median of control spots 388
T13 sequence (P53281 45-122, looked up): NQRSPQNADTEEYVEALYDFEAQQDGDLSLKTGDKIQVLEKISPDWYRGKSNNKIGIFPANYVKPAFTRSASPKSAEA

[17] = biological target: T14, Lsb3, P43603; settings: median of control spots 406
T14 sequence (P43603 385-451, looked up): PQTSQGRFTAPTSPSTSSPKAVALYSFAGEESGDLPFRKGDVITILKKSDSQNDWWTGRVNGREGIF

[18] = biological target: T15, Lsb4, P32793; settings: median of control spots 397
T15 sequence (P32793 402-468, looked up): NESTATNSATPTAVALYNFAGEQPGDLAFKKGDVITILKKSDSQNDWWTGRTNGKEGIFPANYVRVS

[19] = biological target: Myo3, P36006; settings: median of control spots 468
[20] = biological target: T16, Myo5, Q04439; settings: median of control spots 471
T16 sequence (Q04439 1072-1160, looked up): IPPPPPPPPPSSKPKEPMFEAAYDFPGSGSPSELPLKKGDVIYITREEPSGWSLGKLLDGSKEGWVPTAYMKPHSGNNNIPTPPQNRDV

[21] = biological target: T17, Nbp2, Q12163; settings: median of control spots 357
T17 sequence (Q12163 103-180, looked up): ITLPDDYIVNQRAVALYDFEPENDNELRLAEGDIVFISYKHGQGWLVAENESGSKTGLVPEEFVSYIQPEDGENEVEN

[22] = biological target: T18, Pex13, P80667; settings: median of control spots 1341
T18 sequence (P80667 295-386, looked up): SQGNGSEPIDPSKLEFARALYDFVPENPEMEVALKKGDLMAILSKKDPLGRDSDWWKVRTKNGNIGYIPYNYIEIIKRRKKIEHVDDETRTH

[23] = biological target: T19, Pin3, Q06449; settings: median of control spots 2171
T19 sequence (Q06449 53-122, looked up): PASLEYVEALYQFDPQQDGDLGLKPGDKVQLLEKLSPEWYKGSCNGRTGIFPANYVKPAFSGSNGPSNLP

[24] = biological target: Rvs167, P39743; settings: median of control spots 2707
Chain of Rvs167, P39743 (P39743 419-482): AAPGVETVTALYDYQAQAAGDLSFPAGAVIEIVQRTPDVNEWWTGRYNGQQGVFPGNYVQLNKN

[25] = biological target: Sho1, P40073; settings: median of control spots 1148
Chain of Sho1, P40073 (P40073 287-367): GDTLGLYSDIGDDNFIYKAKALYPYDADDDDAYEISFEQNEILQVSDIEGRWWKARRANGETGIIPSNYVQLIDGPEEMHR

[26] = biological target: T20, Sla1-2, P32790; settings: median of control spots 712
T20 sequence (P32790 60-140, looked up): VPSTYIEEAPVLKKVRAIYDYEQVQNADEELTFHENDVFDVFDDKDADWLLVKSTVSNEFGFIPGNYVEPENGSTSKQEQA

[27] = biological target: T21, Sla1-3, P32790; settings: median of control spots 5475
T21 sequence (P32790 344-424, looked up): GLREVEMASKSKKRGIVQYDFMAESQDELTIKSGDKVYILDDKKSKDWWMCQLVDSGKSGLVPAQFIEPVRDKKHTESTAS

Row | Binder | SPOT intensity [1] | SPOT intensity [2] | SPOT intensity [3] | SPOT intensity [4] | SPOT intensity [5] | SPOT intensity [6] | SPOT intensity [7] | SPOT intensity [8] | SPOT intensity [9] | SPOT intensity [10] | SPOT intensity [11] | SPOT intensity [12] | SPOT intensity [13] | SPOT intensity [14] | SPOT intensity [15] | SPOT intensity [16] | SPOT intensity [17] | SPOT intensity [18] | SPOT intensity [19] | SPOT intensity [20] | further results
1 | STKKPRPPVKSKPKH | 397 | 3 | 0 | 2 | 0 | 1 | 3 | 1 | 5 | 0 | 3 | 1 | 2 | 0 | 1 | 0 | 0 | 0 | 0 | 0 | SPOT intensity [21]: 0; SPOT intensity [22]: 0; SPOT intensity [23]: 0; SPOT intensity [24]: 12; SPOT intensity [25]: 12; SPOT intensity [26]: 0; SPOT intensity [27]: 5
2 | GSKSGPPPRPKKPST | 285 | 13 | 1 | 2 | 4 | 0 | 7 | 3 | 11 | 0 | 3 | 0 | 2 | 0 | 38 | 0 | 55 | 2 | 3 | 0 | SPOT intensity [21]: 0; SPOT intensity [22]: 23; SPOT intensity [23]: 2; SPOT intensity [24]: 1; SPOT intensity [25]: 16; SPOT intensity [26]: 1; SPOT intensity [27]: 4
3 | KDKKTKPTPPPKPSH | 190 | 0 | 1 | 5 | 0 | 0 | 4 | 0 | 1 | 2 | 2 | 4 | 3 | 0 | 2 | 0 | 2 | 0 | 0 | 0 | SPOT intensity [21]: 2; SPOT intensity [22]: 0; SPOT intensity [23]: 0; SPOT intensity [24]: 1; SPOT intensity [25]: 50; SPOT intensity [26]: 1; SPOT intensity [27]: 0
4 | VQKRKLPLPGSIASA | 157 | 23 | 0 | 1 | 0 | 0 | 0 | 0 | 0 | 18 | 0 | 0 | 0 | 0 | 0 | 0 | 1 | 13 | 0 | 0 | SPOT intensity [21]: 1; SPOT intensity [22]: 0; SPOT intensity [23]: 0; SPOT intensity [24]: 0; SPOT intensity [25]: 11; SPOT intensity [26]: 0; SPOT intensity [27]: 4
